The record followed here is publication PMC8035206.

The data set addresses N-mEGFP full length (nucleocapsid) (SARS-CoV-2, UniProt P0DTC9 1-419). Put plainly: EMSA; 200 nM RNA; N-mEGFP titrated. The conditions noted are these: protein: recombinant; tags: C-terminal mEGFP; pET28a(+), Ni-purified (His tag implied); chain copies: 2.

B1: 55-nt vRNA (5' UTR segment) (ssRNA)
RNA: AUUAAAGGUUUAUACCUUCCCAGGUAACAAACCAACCAACUUUCGAUCUCUUGUA
Turning to B1, the binding result is listed as “binds”.
